Patent US20190211096A1

Columns and labels:
[1] = target: human AMH of serum samples (human) (UniProt P03971); test: VIDAS sandwich, detection AA011 conjugate 500 ng/ml, AMH 0.055 ng/ml
[2] = target: human AMH of serum samples (human) (UniProt P03971); test: VIDAS sandwich, detection AA011 conjugate 500 ng/ml, AMH 0.275 ng/ml
[3] = target: human AMH of serum samples (human) (UniProt P03971); test: VIDAS sandwich, detection AA011 conjugate 500 ng/ml, AMH 4 ng/ml
[4] = target: human AMH of serum samples (human) (UniProt P03971); test: VIDAS sandwich, detection AA011 conjugate 500 ng/ml, AMH 0.9 ng/ml
[5] = target: human AMH of serum samples (human) (UniProt P03971); test: VIDAS sandwich, detection AA011 conjugate 500 ng/ml, AMH 6.3 ng/ml
[6] = target: human AMH of serum samples (human) (UniProt P03971); test: VIDAS sandwich, detection AA011 conjugate 500 ng/ml, AMH 11 ng/ml
[7] = target: human AMH of serum samples (human) (UniProt P03971); test: VIDAS sandwich, detection AA011 conjugate 500 ng/ml, AMH 8.7 ng/ml
[8] = target: human AMH of serum samples (human) (UniProt P03971); test: VIDAS sandwich, detection AA011 conjugate 500 ng/ml, AMH 0.11 ng/ml
[9] = target: human AMH of serum samples (human) (UniProt P03971); test: VIDAS sandwich, detection AA011 conjugate 500 ng/ml, AMH 2.1 ng/ml

Sequence of UniProt P03971 (P03971 25-560 limits assumed): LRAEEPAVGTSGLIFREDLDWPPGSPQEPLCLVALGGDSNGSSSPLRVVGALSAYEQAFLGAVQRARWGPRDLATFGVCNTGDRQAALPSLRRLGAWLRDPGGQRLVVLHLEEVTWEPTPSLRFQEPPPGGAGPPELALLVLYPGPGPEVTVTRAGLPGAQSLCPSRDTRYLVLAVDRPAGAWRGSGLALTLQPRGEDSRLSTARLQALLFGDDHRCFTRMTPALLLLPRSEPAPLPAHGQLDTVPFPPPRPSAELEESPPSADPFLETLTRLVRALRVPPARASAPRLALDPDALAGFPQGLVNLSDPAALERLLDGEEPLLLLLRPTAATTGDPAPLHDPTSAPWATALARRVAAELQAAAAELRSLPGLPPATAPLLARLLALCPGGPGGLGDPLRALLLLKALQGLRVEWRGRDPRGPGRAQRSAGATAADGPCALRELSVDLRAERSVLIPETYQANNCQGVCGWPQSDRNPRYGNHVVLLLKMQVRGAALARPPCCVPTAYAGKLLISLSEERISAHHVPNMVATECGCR

- S/N (VIDAS RFV/RFV0) [1]: 2
- VIDAS RFV Signal [1]: 81 RFV
- S/N (VIDAS RFV/RFV0) [2]: 5
- VIDAS RFV Signal [2]: 209 RFV
- S/N (VIDAS RFV/RFV0) [3]: 65
- VIDAS RFV Signal [3]: 2940 RFV
- S/N (VIDAS RFV/RFV0) [4]: 16
- VIDAS RFV Signal [4]: 735 RFV
- S/N (VIDAS RFV/RFV0) [5]: 87
- VIDAS RFV Signal [5]: 3920 RFV
- S/N (VIDAS RFV/RFV0) [6]: 120
- VIDAS RFV Signal [6]: 5390 RFV
- S/N (VIDAS RFV/RFV0) [7]: 107
- VIDAS RFV Signal [7]: 4810 RFV
- S/N (VIDAS RFV/RFV0) [8]: 3
- VIDAS RFV Signal [8]: 113 RFV
- S/N (VIDAS RFV/RFV0) [9]: 36
- VIDAS RFV Signal [9]: 1600 RFV
Substance: AA012 commercial anti-AMH antibody (AnshLabs)
